Substrate in the data set: Oc1ccc(CCNCc2ccc(O)c(O)c2)cc1
The experiment in a line: purified protein. It counts as biochemical, Lycoris longituba. The following applies: 200 μM AdoMet, 50 μM-2 mM norbelladine, 30 mM potassium phosphate pH 8.0, 30°C, 2 h.

B1: LlOMT (Lycoris longituba O-Methyltransferase) (Lycoris longituba) (protein)
chain: MGASQDDYALIHKNILHSEDLLKYILETSVYPREHEQLKGLREVTEKHEWSMALVAADEGLFLSMLLKLMNAKRTIEIGVYTGYSLLTTALALPEDGKITAIDVNKSYFEIGLPFIQKAGVEHKINFIESEALPVLDQMLQEMKEEDLYDFAFVDADKPNYANYHERLVKLVRVGGAIVYDNTLWFGTVAFPEYPGLHPEEEECRVSFRNLNKLLAADPRVEISQVSIGDGLTICRRLY
In the case of B1, the Km (as a rule, the concentration of substrate that gives half-maximal velocity) was determined as 317 ± 17 µM.

Values taken from PMC7525064, “Transcriptome Analysis of Different Tissues Reveals Key Genes Associated With Galanthamine Biosynthesis in Lycoris longituba” (Frontiers in Plant Science, 2020).
